{"source": "patent US20220003772A1", "about": "“METHODS OF TREATING CANCER” (priority 2018, published 2022)", "key": {"free sBCMA": {"target": "T1, free sBCMA (Homo sapiens, UniProt Q02223)", "T1 construct": "the extracellular portion of the BCMA receptor is cleaved from the membrane of the plasma cell surface; from tissue; host or cells: serum of clinical study subjects", "T1 sequence (Q02223 1-54 limits assumed)": "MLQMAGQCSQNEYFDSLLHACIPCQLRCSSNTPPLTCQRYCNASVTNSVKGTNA", "assay": "Reduction of free sBCMA in serum after infusion (free sBCMA MSD immunoassay)", "type": "in vivo", "settings": "at higher dose levels", "description": "In a dose escalation clinical study, 38 subjects were treated with J6M0-MMAF (Part1). The doses ranged from 0.03 mg/kg up to 4.60 mg/kg (0.03 mg/kg, 0.06 mg/kg, 0.12 mg/kg, 0.24 mg/kg, 0.48 mg/kg, 0.96 mg/kg, 1.92 mg/kg, 2.5 mg/kg, 3.4 mg/kg, and 4.6 mg/kg). An expansion cohort of 35 subjects followed at a dose of 3.40 mg/kg (Part2). […] Levels of circulating soluble BCMA (sBCMA) were followed during these studies. Soluble BCMA was measured in serum samples collected at pre- and post-infusion of J6M0-MMAF. Immunoassays (FIG. 1) were used to determine the levels of free sBCMA (FIG. 1a) and J6M0-MMAF-bound sBCMA (FIG. 1b).\nFree sBCMA Assay Protocol (FIG. 1a) 1.1. Preparation of Anti-BCMA Antibody Coated Plates (3 μg/ml)\n1. An appropriate volume (˜3 mL per plate) of capture coating antibody was prepared—anti-BCMA antibody (J6M0) at 3 μg/mL in DPBS.\n2. […]\n1. 1×MSD read buffer was prepared as follows:\n5 mL of 4×MSD read buffer T (Meso Scale Discovery #R92TC-1) plus 15 mL of Milli-Q water.\n3. […], of 1× read buffer was transferred into to each well of the assay plate.\n4. The MSD assay plate was read immediately by using the MSD Sector Imager 6000 (Meso Scale Discovery).\nThe binding of J6M0-MMAF to sBCMA was measured by comparing the post-infusion levels of free sBCMA measured 60 minutes after the start of infusion to those found at pre-infusion. […]"}, "BCMA": {"target": "T2, BCMA (Homo sapiens, UniProt Q02223)", "T2 construct": "BCMA membrane expression is present on a subset of normal late-stage B cells and is universally detected on normal and malignant plasma cells; endogenous in cells; host or cells: plasma/myeloma cells of the clinical study subjects (in vivo)", "T2 sequence (Q02223 1-184)": "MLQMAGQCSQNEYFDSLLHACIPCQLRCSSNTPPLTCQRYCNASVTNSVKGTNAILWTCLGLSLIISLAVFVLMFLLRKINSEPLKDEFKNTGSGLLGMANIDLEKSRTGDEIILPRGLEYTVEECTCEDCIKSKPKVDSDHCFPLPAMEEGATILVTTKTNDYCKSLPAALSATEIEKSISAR", "assay": "Dose escalation / expansion clinical study of J6M0-MMAF: response by IMWG criteria", "type": "in vivo", "settings": "expansion cohort of 35 subjects (Part2), dose 3.40 mg/kg; 21/35; 95% CI 42.1-76.1"}}, "data": [{"substance": "J6M0-MMAF", "values": [{"measurement": "binding of sBCMA by J6M0-MMAF in patients", "setting": "free sBCMA", "value": "binds a large fraction of sBCMA"}, {"measurement": "overall response rate (ORR) by IMWG criteria", "setting": "BCMA", "value": 60, "unit": "%"}]}]}
